According to patent publication US20240052063A1, “Binding Proteins 2” (Nucleus Therapeutics Pty. Ltd., priority 2017, published 2024):
Entries after “also recorded” stand apart in the source; their conditions may differ.

Key:
[1] = tested on: HDR-proficient DLD1 cells; assay: Selectivity of combination therapy in HDR-proficient cells; type: cell-based; conditions: 5 nM olaparib, 10 μM di-scFv, alone or combined
Procedure: Homology-directed repair (HDR) deficient BRCA2-DLD1 cells and PTEN-U251 cells were treated with control, 5 nM olaparib, 10 μM di-scFv, or 10 μM di-scFv+5 nM olaparib. Surviving fraction was determined by colony formation assay.
It was then determined whether the combination of di-scFv and olaparib is simply universally cytotoxic, regardless of DNA repair status. To evaluate this possibility, HDR-proficient DLD1 cells were treated with the above regimen to confirm selectivity of combination therapy to HDR-deficient malignant cells.

[2] = tested on: Primary human glioblastoma (GBM) cancer cells; assay: Percentage of live cells by trypan blue staining; type: cell-based; conditions: seven primary human GBM tumour explants, FIG. 14; listed as di-scFv (SEQ ID NO: 41)
Procedure: Primary human glioblastoma (GBM) cancer cells extracted from primary human GBM tumours from patients were treated with control or di-scFv (SEQ ID NO: 41), and percentage of live cells was evaluated by trypan blue staining.

[3] = tested on: human GBM cancer stem cells (CSCs) grown as tumour spheres; assay: GBM cancer stem cell tumour spheres: penetration and sphere volume; type: cell-based; conditions: listed as di-scFv (SEQ ID NO: 41)
Procedure: GBM cancer stem cells extracted from primary human GBM tumours from patients and grown as spheres were treated with control or di-scFv (SEQ ID NO: 41), and the effect of dose and incubation time on reduction of sphere volume was evaluated by confocal micrographs of DX1-rhodamine cellular penetration into GBM cells. Tumour spheres are recognised as a useful tool for pre-clinical studies as they retain tumour heterogeneity and more closely represent the original patient tumour.

[4] = tested on: PTEN-deficient U87 human glioma cells; assay: Cell viability by Trypan blue exclusion assay and light microscopy; type: cell-based; conditions: PTEN-deficient U87, 7 days after treatment, FIG. 9
Procedure: Cell viability of PTEN-deficient U87 human glioma cells was also assessed following treatment with control media or media containing Variants 10, 13, 15, or 16. Cell viability was determined 7 days after treatment using Trypan blue exclusion assay and by direct visualization of cell morphology by light microscopy.

[5] = tested on: PTEN-deficient U251 human glioma cells; assay: Phospho-53BP1 foci accumulation (DNA damage), PTEN-deficient cells; type: cell-based
Procedure: A matched pair of PTEN-proficient and deficient U251 human glioma cells were treated with control media or media containing Variant 10, 11, 13, 15, or 16 for twenty-four hours. Cells were then washed, fixed, blocked, and then probed with an anti-phospho-53BP1 antibody overnight. Cells were then washed and incubated with an AlexaFluor555-conjugated secondary antibody. Finally, cells were washed, counterstained with DAPI, and visualized under a fluorescence microscope. Images were saved and evaluated by CellProfiler to determine mean number of phospho-53BP1 foci per cell.
(§1) A matched pair of BRCA2-proficient and deficient DLD1 colon cancer cells and PTEN-proficient and deficient U251 human glioma cells were treated with control media or media containing 10 μM di-scFv variant 13 (SEQ ID NO: 41), 5 nM olaparib, or combination treatment.

DLD1 colon cancer cells = assay: Alkaline phosphatase-based survey of nuclear penetration; type: cell-based; conditions: DLD1 cells treated one hour; FIG. 5
[6] = tested on: BRCA2-proficient DLD1 colon cancer cells; assay: Cell viability by Trypan blue exclusion assay, BRCA2-proficient cells; type: cell-based; conditions: BRCA2-proficient DLD1, 7 days, FIG. 10
Procedure: (§2) Next, a matched pair of BRCA2-proficient and deficient DLD1 colon cancer cells was treated with control media or media containing Variants 10, 13, 15, or 16. Cell viability was determined 7 days later by Trypan blue exclusion assay and by direct visualization of cell morphology by light microscopy. […] Representative light microscope images shown the changes in morphology in the BRCA2-deficient cancer cells treated with the variants are shown in FIG. 10, Panel A. Quantitative analysis of the cell survival by Trypan blue exclusion assay is shown in FIG. 10, Panel B.

DLD-1 cells = assay: Nuclear penetration by protein L immunostain of fixed cells; type: cell-based; conditions: FIG. 11, listed as di-scFv (SEQ ID NO: 41)
Procedure: (§3) DLD-1 and MCF-7 cells were treated with control or di-scFv (SEQ ID NO: 41), and nuclear penetration was evaluated by protein L immunostain of fixed cells.

MCF-7 cells = assay: as above; type: cell-based; conditions: FIG. 12, listed as di-scFv (SEQ ID NO: 41)
Procedure: as §3

[7] = tested on: GBM cells extracted from human GBM tumours (intracranial); assay: Orthotopic mouse model of GBM; type: in vivo
From the text: An orthotopic mouse model of GBM was generated by intracranial injection of GBM cells extracted from human GBM tumours.

[8] = tested on: BRCA2-deficient DLD1 colon cancer cells; assay: Phospho-53BP1 foci accumulation, BRCA2-deficient cells; type: cell-based; conditions: FIG. 17
Procedure: as §1

[9] = tested on: BRCA2-deficient DLD1 colon cancer cells; assay: Cell viability by Trypan blue exclusion assay, BRCA2-deficient cells; type: cell-based; conditions: BRCA2-deficient DLD1, 7 days, FIG. 10
Procedure: as §2

B1: Variant 13: cell penetrating anti-DNA di-scFv variant, amino acid sequence SEQ ID NO: 41 (protein)
scFv: DIQMTQSPSSLSASLGDRATITCRASKTVSTSSYSYMHWYQQKPGQPPKLLIKYASYLESGVPSRFSGSGSGTDFTLTISSLQPEDAATYYCQHSREFPWTFGGGTKVEIKRADAAPGGGGSGGGGSGGGGSEVQLVESGGGLVQPGGSLRLSCAASGFTFSNYGMHWVRQAPGKGLEWVSYISSGSSTIYYADSVKGRFTISRDNAKNSLYLQMNSLRAEDTAVYYCARRGLLLDYWGQGTTVTVSSASTKGPSVFPLAPLESSGSDIQMTQSPSSLSASLGDRATITCRASKTVSTSSYSYMHWYQQKPGQPPKLLIKYASYLESGVPSRFSGSGSGTDFTLTISSLQPEDAATYYCQHSREFPWTFGGGTKVEIKRADAAPGGGGSGGGGSGGGGSEVQLVESGGGLVQPGGSLRLSCAASGFTFSNYGMHWVRQAPGKGLEWVSYISSGSSTIYYADSVKGRFTISRDNAKNSLYLQMNSLRAEDTAVYYCARRGLLLDYWGQGTTVTVSS
modifications: Variant 13
[1]
  cell death: No effect on cell death
[2]
  cancer cell death (percentage of live cells): Five of the seven glioblastoma tumour explants treated with di-scFv (SEQ ID NO: 41) showed significant cancer cell death; also recorded: kills primary human glioblastoma cells
[3]; confocal micrographs, FIG. 15A
  cellular penetration into GBM spheres: demonstrated cellular penetration in GBM spheres; also recorded: penetrates human glioblastoma spheres
[3]; effect of dose and incubation time, FIG. 15B, C
  sphere volume: reduced sphere volume in dose-dependent and time-dependant manner; also recorded: reduces sphere volume in a time-dependent (B) and dose-dependent (C) manner
[4]
  cell viability relative to control treated cells: caused reductions in cell viability
[5]; HDR-deficient U251, 24 hour treatment, FIG. 17
  percentage of P53BP1-positive cells: increased
[5]; PTEN-deficient U251, twenty-four hours, FIG. 8
  mean number of phospho-53BP1 foci per cell: increased the number of foci
[5]; PTEN-deficient U251, 10 μM di-scFv, 5 nM olaparib, FIG. 17
  mean number of phospho-53BP1 foci per cell: increased the number of phospho-53BP1 foci
DLD1 colon cancer cells
  nuclear penetration (histogram of cell counts versus nuclear staining intensity) relative to the yeast prototype: notable right shift and narrowing of distributions relative to the yeast prototype
[6]
  cell viability (toxicity): not toxic
DLD-1 cells
  nuclear penetration: successfully penetrated; also recorded: penetrates HDR deficient DLD-1 colon cancer cell nuclei
MCF-7 cells
  nuclear penetration: successfully penetrated; also recorded: penetrates HDR deficient MCF-7 breast cancer cell nuclei
[7]; FIG. 16B
  incidence of apoptosis in tumours (TUNEL staining): increased incidence of apoptosis
[7]; body weight profile, FIG. 16D
  toxicity or weight loss associated with treatment: No toxicity or weight loss
[7]; controls median 72 days
  median survival longer than controls: more than 20%
[7]; group of 7 mice, FIG. 16E
  mean survival: 83 days
  median survival: 87 days
[7]; normal brain, FIG. 16C
  di-scFv in adjacent normal brain cells (protein L immunostaining): not evident
[7]; suggested by tumour size reduction and TUNEL staining
  crossing of the blood brain barrier: successfully crossed the blood brain barrier
[7]; tail vein injection, brain sections, FIG. 16A
  reduction of glioblastoma tumour size versus control mice: more than 40%
[7]; tumour tissue, FIG. 16C
  di-scFv in GBM tumour cells (protein L immunostaining): detected in the nuclei of GBM tumour cells
[8]; BRCA2-deficient DLD1, 10 μM di-scFv, 5 nM olaparib
  mean number of phospho-53BP1 foci per cell: increased the number of phospho-53BP1 foci
[8]; HDR-deficient DLD1, 24 hour treatment
  percentage of P53BP1-positive cells: increased
[9]
  cell viability (cell killing): killed by the variants
